Experiments:
[1] = molecular target: human non-cleavable membrane bound TNFα on CHO cells (human) (UniProt P01375); assay: cell-based or functional assay
human TNFα (human) = human TNFα (human) (UniProt P01375); assay: cell-based or functional assay
human TNFα (human), sequence (P01375 77-233 limits assumed): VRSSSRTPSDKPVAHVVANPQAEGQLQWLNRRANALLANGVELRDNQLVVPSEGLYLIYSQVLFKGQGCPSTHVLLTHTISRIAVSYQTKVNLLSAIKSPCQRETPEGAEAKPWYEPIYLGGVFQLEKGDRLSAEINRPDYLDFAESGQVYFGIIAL

human non-cleavable membrane bound TNFα on CHO cells (human), sequence (P01375 whole entry): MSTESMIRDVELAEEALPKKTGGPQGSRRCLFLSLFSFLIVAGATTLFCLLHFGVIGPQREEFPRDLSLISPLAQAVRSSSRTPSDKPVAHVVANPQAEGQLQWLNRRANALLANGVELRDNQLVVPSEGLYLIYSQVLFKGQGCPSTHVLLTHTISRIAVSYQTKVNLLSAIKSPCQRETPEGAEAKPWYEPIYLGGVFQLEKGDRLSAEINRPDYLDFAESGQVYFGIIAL

**Q.** For adalimumab with IgG4 isotype (antibody), which IC50, inhibition of killing of L929 cells by human non-cleavable membrane bound TNFα CHO cells (MTT) [1] is on record?
**A.** 0.669 nM

**Q.** What about the Average % inhibition of human TNFα-induced CXCL1 production in vivo (mouse plasma) (human TNFα (human)) of the same substance?
**A.** 89.4%

**Q.** What about the IC50, inhibition of TNFα-induced killing of L929 cells (MTT) (human TNFα (human)) of the same substance?
**A.** 0.243 nM

From patent US20140255406A1
